Where a chain is given by its changes, count along the chain named. Names may count otherwise.

In data set [1] the target is tubulin (soluble tubulin dimers, bovine brain) (bovine) (UniProt Q6B856).
Data set [2] has the same target. Nature of the data set: SEC; polypeptides incubated at the indicated molar ratio with 30 µM tubulin 10 min on ice; Superdex 200 10/300 GL, BRB20 pH 7.1 with 125 mM KCl and 10 mM imidazole (or increasing KCl, Figure 3C), eluted at 4 °C.
For data set [3], the target named is Taxol-stabilized microtubules (polymerized bovine brain tubulin) (bovine) (UniProt Q6B856). Description: co-sedimentation; 0.4 µM dimeric constructs with increasing concentrations of Taxol-stabilized microtubules, 37 °C 20 min, centrifuged at 100 k rpm; supernatant and pellet by SDS-PAGE and densitometry.
In data set [4] the target is T1, Taxol-stabilized microtubules (polymerized bovine brain tubulin) (bovine, UniProt Q6B856 1-445). Nature of the data set: co-sedimentation; 0.1 µM C-terminal GFP-tagged constructs with increasing concentrations of Taxol-stabilized microtubules, 37 °C 20 min, centrifuged; depletion from the supernatant monitored by fluorimetry. The conditions noted are these: both partners purified.

Data set [5] deals with the molecule itself. Nature of the data set: cross-linking; 0.5 µM dimeric constructs in BRB20 with 125 mM NaCl and 1 mM DTT, 0.5% glutaraldehyde on ice for 2 h; SDS-PAGE and colloidal Coomassie staining.
Data set [6] has as its target T1, Taxol-stabilized microtubules …. Nature of the data set: co-sedimentation; 0.4 µM dimeric constructs with increasing concentrations of Taxol-stabilized microtubules, 37 °C 20 min, centrifuged at 100 k rpm; supernatant and pellet by SDS-PAGE and densitometry. The conditions noted are these: both partners purified.

With “p150 Nt-GCN4 (human p150Glued amino acids 1–210, GCN4 coiled-coil, linker, C-terminal 6×-His) (from UniProt Q14203-1 1-210) (domain or fragment)”, in data set [1], the catastrophe frequency, TIRF elongation assay from GMPCPP seeds, 100–200 nM p150 Nt-GCN4 (fold reduction) came out at 4 fold and the microtubule polymerization rate, TIRF elongation assay from GMPCPP seeds, 100–200 nM p150 Nt-GCN4 was 2 fold. The stoichiometry N (p150∶tubulin molar ratio) in data set [2] worked out at 1.
The Kd is the equilibrium constant for the complex coming apart. In data set [3], “Δ5–7 Nt-GCN4 (p150Glued amino acids 1–210 deleted for exons 5–7, GCN4 coiled-coil, linker, C-terminal 6×-His) (from UniProt Q14203-1 1-210) (domain or fragment)” registered a dissociation constant Kd of 470 nM.

B1: p150 Nt with C-terminal EGFP-6×-His (domain or fragment, human)
chain: MAQSKRHVYSRTPSGSRMSAEASARPLRVGSRVEVIGKGHRGTVAYVGATLFATGKWVGVILDEAKGKNDGTVQGRKYFTCDEGHGIFVRQSQIQVFEDGADTTSPETPDSSASKVLKREGTDTTAKTSKLRGLKPKKAPTARKTTTRRPKPTRPASTGVAGASSSLGPSGSASAGELSSSEPSTPAQTPLAAPIIPTPVLTSPGAVPPLAAAADPPVAT
notes: p150Glued (DCTN1), human, amino acids 1-210, NM_004082.4; short linker, followed by EGFP-6×-His; also called C-terminal GFP-tagged monomeric construct; source: Rosetta E. coli, purified; not shown: EGFP, C-terminal, kept
With B1, in data set [4], the affinity, expressed as Kd, was 890 nM.

B2: p135 Nt-GCN4 (MMRQ, p150Glued amino acids 139–210, GCN4 coiled-coil, linker, C-terminal 6×-His) (domain or fragment)
chain: MMRQAPTARKTTTRRPKPTRPASTGVAGASSSLGPSGSASAGELSSSEPSTPAQTPLAAPIIPTPVLTSPGAVPPLVMKQLEDKVEELLSKNYHLENEVARLKKLVGEAAAADPPVAT
notes: N-terminal MMRQ replicating the endogenous expressed p135 spliceform of p150Glued (DCTN1); p150Glued (DCTN1), human, amino acids 139-210 of p150Glued, NM_004082.4; lacks the CAP-Gly domain and exon 5; short linker before the C-terminal 6×-His tag; Recapitulates the neuronally enriched p135 splice form; also called p135 dimer; source: Rosetta E. coli, purified (Ni Sepharose, Mono S, Superdex 200); …
As to B2, in data set [5], the binding result was “binds”.

B3: p150 Nt-GCN4 (human p150Glued amino acids 1–210, GCN4 coiled-coil, linker, C-terminal 6×-His) (domain or fragment)
chain: MAQSKRHVYSRTPSGSRMSAEASARPLRVGSRVEVIGKGHRGTVAYVGATLFATGKWVGVILDEAKGKNDGTVQGRKYFTCDEGHGIFVRQSQIQVFEDGADTTSPETPDSSASKVLKREGTDTTAKTSKLRGLKPKKAPTARKTTTRRPKPTRPASTGVAGASSSLGPSGSASAGELSSSEPSTPAQTPLAAPIIPTPVLTSPGAVPPLVMKQLEDKVEELLSKNYHLENEVARLKKLVGEAAAADPPVAT
notes: p150Glued (DCTN1), human, amino acids 1-210, NM_004082.4; holds the CAP-Gly and basic domains; short linker before the C-terminal 6×-His tag; Dimer through the GCN4 coiled-coil that replaces CC1 of p150Glued; vector pET-29a; also called dimeric p150 Nt-GCN4; p150 Nt-GCN4-His; source: Rosetta E. coli, purified (Ni Sepharose, Mono S, Superdex 200); not shown: His6, C-terminal, kept
B3 gave an equilibrium dissociation constant (Kd) in data set [6] of 290 nM. Further, in data set [5], the binding result is “binds”.

B4: p150 Nt-GCN4 with C-terminal EGFP-6×-His (domain or fragment)
chain: B3 chain
notes: p150Glued (DCTN1), human, amino acids 1-210, NM_004082.4; short linker, followed by EGFP-6×-His; also called C-terminal GFP-tagged dimeric construct; source: Rosetta E. coli, purified; not shown: EGFP, C-terminal, kept
B4 showed a Kd in data set [4] of 340 nM.

B5: Q74P Nt-GCN4 (p150 Nt-GCN4 with the Perry syndrome mutation Q74P) (domain or fragment)
chain: B3 chain with Q74P
notes: p150Glued (DCTN1), human, amino acids 1-210, NM_004082.4, with the disease mutation Q74P; short linker before the C-terminal 6×-His tag; also called Q74P p150 Nt-GCN4; source: Rosetta E. coli, purified immediately before experimentation with a final gel filtration step
For B5, the binding result in data set [5] was “binds”.

The record behind these values is PMC3712912, “Dynactin Subunit p150^Glued Is a Neuron-Specific Anti-Catastrophe Factor” (PLoS Biology, 2013).
